Laboratory results reported in US6960559 (UNIVERSITY OF ZURICH, dated 2005).
Values belong to the binder of their own block, whether it stands above or below them. The star is where a group is joined. Cbz = O=C(OCc1ccccc1)*

How the values were obtained:
[1] = target: T1, C6 plasma membrane associated metalloendoprotease (rat C6 glioblastoma cells) (rat); test: cell-based or functional assay
[2] = target: T1, C6 plasma membrane associated …; test: cell-based or functional assay; remark: listed apart in the source

Binder: H-FAFY-NH2 [FAFY-NH2]
IC50 on CNS myelin [µM], half maximal inhibition of C6 cell spreading [1]: 300 µM

Binder: H-Ala-Phe-Tyr-NH2 [AFY-NH2]
IC50 on CNS myelin [µM], half maximal inhibition of C6 cell spreading [1]: 1000 µM

Binder: Cbz-Gly-Phe-NH2 (SMILES NC(=O)[C@H](Cc1ccccc1)NC(=O)CNC(=O)OCc1ccccc1) [carbobenzoxy-Gly-Phe-amide]
IC50 on CNS myelin [µM], half maximal inhibition of C6 cell spreading [1]: 600 µM

B2: carbobenzoxy-Phe-Ala-Phe-Tyr-amide (peptide)
peptide: Cbz-FAFY-NH2
SMILES: C[C@H](NC(=O)[C@H](Cc1ccccc1)NC(=O)OCc1ccccc1)C(=O)N[C@@H](Cc1ccccc1)C(=O)N[C@@H](Cc1ccc(O)cc1)C(N)=O
IC50 on CNS myelin [µM], half maximal inhibition of C6 cell spreading [1]: 3 µM

Binder: Cbz-Tyr-Tyr-OH (SMILES O=C(N[C@@H](Cc1ccc(O)cc1)C(=O)N[C@@H](Cc1ccc(O)cc1)C(=O)O)OCc1ccccc1) [carbobenzoxy-tyrosine-tyrosine]
IC50 on CNS myelin [µM], half maximal inhibition of C6 cell spreading [1]: 300 µM

Binder: Cbz-Gly-Phe-Phe-NH2 (SMILES NC(=O)[C@H](Cc1ccccc1)NC(=O)[C@H](Cc1ccccc1)NC(=O)CNC(=O)OCc1ccccc1) [Carbobenzoxy-Gly-Phe-Phe-amide]
IC50 on CNS myelin [µM], half maximal inhibition of C6 cell spreading [1]: 8 µM

Continued, values first:

IC50 on CNS myelin [µM], half maximal inhibition of C6 cell spreading [1]: 20 µM
B1: cbz-AFY-NH2 (peptide)
peptide: Cbz-Ala-Phe-Tyr-NH2
SMILES: C[C@H](NC(=O)OCc1ccccc1)C(=O)N[C@@H](Cc1ccccc1)C(=O)N[C@@H](Cc1ccc(O)cc1)C(N)=O

IC50 on CNS myelin [µM], half maximal inhibition of C6 cell spreading [1]: 300 µM
Binder: Cbz-Gly-Phe-Phe-OH (SMILES O=C(CNC(=O)OCc1ccccc1)N[C@@H](Cc1ccccc1)C(=O)N[C@@H](Cc1ccccc1)C(=O)O) [cbz-GFF]

IC50 on CNS myelin [µM], half maximal inhibition of C6 cell spreading [1]: 600 µM
Binder: Cbz-Phe-Ala-NH2 (SMILES C[C@H](NC(=O)[C@H](Cc1ccccc1)NC(=O)OCc1ccccc1)C(N)=O) [cbz-FA-NH2]

IC50 on CNS myelin [µM], half maximal inhibition of C6 cell spreading [1]: 600 µM
Binder: Cbz-Ala-Phe-NH2 (SMILES C[C@H](NC(=O)OCc1ccccc1)C(=O)N[C@@H](Cc1ccccc1)C(N)=O) [cbz-AF-NH2]

IC50 of C6 cell spreading on CNS myelin [2]: 5 µM
Binder: Cbz-Gly-Leu-Phe-NH2 (SMILES CC(C)C[C@H](NC(=O)CNC(=O)OCc1ccccc1)C(=O)N[C@@H](Cc1ccccc1)C(N)=O) [cbz-GLF-NH2]

IC50 of C6 cell spreading on CNS myelin [2]: 5 µM
Binder: Cbz-Gly-Phe-Phe-OMe (SMILES COC(=O)[C@H](Cc1ccccc1)NC(=O)[C@H](Cc1ccccc1)NC(=O)CNC(=O)OCc1ccccc1) [cbz-GFF-OCH3]
